This is an account of results in the supplement of paper PMC9170038.

For series [1], the system named is MS2 coat protein. Kind of series: apparent KD of MS2 coat protein; designed switch direction (-1 OFF switch, 1 ON switch): 1; higher = weaker reporter binding. As to conditions: Eterna round: R98. On the procedure:
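RNA-MaP: designed FMN/MS2 RNA switches (84 nt design region) are transcribed on-chip within common flanks and titrated with SNAP-549-labelled MS2 coat protein (about 1-3000 nM) in 100 mM Tris pH 7.5, 80 mM KCl, 4 mM MgCl2, without or with 200 uM FMN. Median apparent KD per design; activation ratio = KD,OFF / KD,ON.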

Series [2] relates to MS2 coat protein. Nature of the series: apparent KD of MS2 coat protein, switch ON state; designed switch direction (-1 OFF switch, 1 ON switch): 1; higher = weaker reporter binding. As to conditions: FMN input: 0 or 200 uM; Eterna round: R93 (includes R88 designs). Put shortly: (§1)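 Apparent KD stands for the median, per design, of fits to normalised cluster binding curves. The curves came from titrating on-chip-transcribed RNA switches on Illumina sequencing clusters with SNAP-549-labelled MS2 coat protein, twofold from 0.7 or 1.5 nM to 3 µM. Buffer was 100 mM Tris-HCl pH 7.5, 80 mM KCl, 4 mM MgCl2, without or with constant ligand.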

The subject of series [3] is MS2 coat protein. Kind of series: apparent KD of MS2 coat protein, switch OFF state (with FMN for OFF switches, without FMN for ON switches); designed switch direction (-1 OFF switch, 1 ON switch): 1; higher = weaker reporter binding. The settings on record: FMN input: 0 or 200 uM; Eterna round: R93 (includes R88 designs). Put shortly: as §1

For “AUAAUAACUUGAGGAUAUGCUCAGGAAUACUGAGCAGAAGGCAGGGAAACCUGAGGAUCACCCAGGUGAAUAAUAAUAAUAAUA [Same State NG1 - A3C, U17G Submission 1A]”, the “apparent KD of MS2 coat protein” value in the series on MS2 coat protein [1] (input ligand: FMN 200 uM) turned out to be 18.3 nM; with MS2 coat protein [1] (input ligand: none), 23.4 nM.
On the same counts, the results for “GACCGUCCCACAGGAUAUAGAAGGGCGUCCGUUCUAGAAGGGUGAUCAGGACCAAAAGGUCACAUGAGGAUCACCCAUGUAGGU [Usorti]” are 43.7 nM and 36.6 nM.
On to “AUAAUAACUUGAGGAUAUGCUCAGGAAUACUGAGCAGAAGGCAGGGAAACCUGAGGAUCACCCAGGUAACUGGAAUAAUAAUAA [Same State NG1 - A3C, U17G Submission 4A]”, for which the “apparent KD of MS2 coat protein” value with MS2 coat protein [1] (input ligand: FMN 200 uM) came to 25.6 nM; in the series with MS2 coat protein [1] (input ligand: none) it was 25.8 nM.
On the same counts, the results for “CCGGAAACGGGUAGCUGACAUGAGGAUCACCCAUGUGAUACACAGGAUAUGGAUCCUAAUUGGAUCCAGAAGGGUGUCAGCUAC [Mat - Same State NG 3 - JL Mod - D84]” are 130 nM and 1270 nM.
For “CAUGUCCUCACAGGAUAUGCUGGACUUUGUCCAGCAGAAGGGUGAUAACAUGAGGAUCACCCAUGUGGACAUGAUAUAUUUAAG [Mat - Same State NG 1 - Eli mod - D95]” the same measures were 623 nM and 106 nM.
For “GCUGCUAUCGCAGGAUAUUACAUGGGAAAUAAAACAUGAGGAUCACCCAUGUUAAAUAUCGUAAAUAAGAAGGGCGAUAGCAGC [Lame State 2 - Jieux - Same State NG 2]” the same measures were 178 nM and 1120 nM.
Consider “GGUCCAACAUGAGGAUAUGGCACCUUAUUGGUGCCAGAAGGCGUGUCUAUAGACAUGAGGAUCACCCAUGUAAUAAAUUGGACC [SameState #22 NG1]”, for which the “apparent KD of MS2 coat protein” value amounted to 45.4 nM with MS2 coat protein [1] (input ligand: FMN 200 uM) and 796 nM in the series on MS2 coat protein [1] (input ligand: none).
Regarding “GCCAUCGCAUGAGGAUAUGGCACCGUUUCGGUGCCAGAAGGCAUGUCAUAAGACAUGAGGAUCACCCAUGUAAAUAAGAUGGCA [JanderMod 3 - Jieux - Same State NG 1]”, the results for the “apparent KD of MS2 coat protein” value with MS2 coat protein [1] (input ligand: FMN 200 uM) and in the series with MS2 coat protein [1] (input ligand: none) were 47.9 nM and 715 nM, respectively.
On the same counts, the results for “CUGCAAAUCUUAGGAUAUGCUCAGGAAUACUGAGCAGAAGGAAGAUAUACCUGAGGAUCACCCAGGUAAAACUGGAGCAGAAUA [Same State NG1 - A3C, U17G Submission 8G U68A, U7A]” are 24.3 nM and 26.6 nM.
Take “AAAACAUACCGAGGAUAUUCAUAUAAUAAAUAAACAUGAGGAUCACCCAUUUGGCAAAAGCCUAGGGAGAAGGCGGAAUGCUAA [salish99_SSNG2_r2_119]”: the “apparent KD of MS2 coat protein” value in the series on MS2 coat protein [1] (input ligand: FMN 200 uM) is 658 nM.
Consider “GAAAAACAUGAGGAUCACCCAUGUAGAAAUAUGGGAGGAUAUACAAACUCGAAAGACAAAGUAGAAGGCCUAAAAG [Garnet 24]”, for which the “apparent KD of MS2 coat protein” value in the series with MS2 coat protein [2] amounted to 38.2 nM; with MS2 coat protein [3], 133 nM.
On the same counts, the results for “AUGGUGCAGGUACAGGAUAUGUUGCUCGUAACAUGAGGAUCACCCAUGUACCUAUGAGAUUAAAUGCAGAAGGGUGCACACCACG [Quorra]” are 43.5 nM and 1480 nM.
For “AAAAAACAUGAGGAUCACCCAUGUGCAAAAUUCGCAGGAUAUUUCUCAAUUAAAUGAGAGGAAGAAGGGUGACAAA [Nob's Hobby 28 - Jieux - Same State 1]” the same measures were 95.9 nM and 55.3 nM.
As to “AACAAUCUAUCUGAGGAUAUCAUAAAAAAGACAUGAGGAUCACCCAUGUAGCAGGAAACUGCAUAUGAGAAGGCAGAUAGAUUGA [SS2: 1122]”, the “apparent KD of MS2 coat protein” value was found to be 29.6 nM in the series with MS2 coat protein [2] and 18.1 nM in the series with MS2 coat protein [3].
For “AAGAAACAUGAGGAUCACCCAUGUGAGAUAAACACAGGAUAUGCAAAAGAAAGAAAGAAAGCAGAAGGGUGAAGAA [Mat - Same State 1 - Tesla mod - 51]” the same measures were 21.6 nM and 129 nM.
On the same counts, the results for “AAGCAACAUGAGGAUCACCCAUGUAGCAGGGUCAGAGGAUAUUUGAUCUUGGUAAGGGUUAAAGAAGGUUGAUAAA [Ceralete]” are 159 nM and 91.1 nM.
For “AGAAAUAAAACACAGGAUAUGAAAAAGAAAACAUGAGGAUCACCCAUGUAAAAGAAAAAUAAAAAUCAGAAGGGUGAAAAUAAAG [Put G segment last in JL design (80%)]” the same measures were 59 nM and 205 nM.
Regarding “AGGAAACAUGAGGAUCACCCAUGUGUAAAAAAUACAGGAUAUGGAAACACGAAAGUGAAACCAGAAGGGUAAAAAA [77%, Mat - Mod of Eli, 31]”, the “apparent KD of MS2 coat protein” value with MS2 coat protein [2] was determined as 13.4 nM; with MS2 coat protein [3], 19 nM.
“AAAAGACAUGAGGAUCACCCAUGUAAAAACAUAGGAGGAUAUGUCAUGAAAAAAGACUUGACAGAAGGCCUUUGUC [SS1 - 49]”: the entries for the “apparent KD of MS2 coat protein” value with MS2 coat protein [2] and in the series with MS2 coat protein [3] were 42 nM and 69.8 nM, respectively.
For “AAAAAACAUGAGGAUCACCCAUGUAAAAAAAACACAGGAUAUCCCUUUUUAAAAAAAAAAGGAGAAGGGUGAAAAA [Nob's Hobby 6 - Jieux - Same State 1]” the same measures were 29.8 nM and 28 nM.
With “AAGAAACAUGAGGAUCACCCAUGUACCCAAAAGGGAGGAUAUGGAAAAGAAAGAAAGAAACCAGAAGGCCCAUGAA [Artabanus the Hyrcanian]”, the “apparent KD of MS2 coat protein” value with MS2 coat protein [2] turned out to be 10.8 nM; with MS2 coat protein [3], 22.2 nM.
On the same counts, the results for “AAGAAACAUGAGGAUCACCCAUGUACCCAAAACGGAGGAUAUGGGAAAGAAAGAAAGAAACCAGAAGGCCGAUGAA [Amyrtaeus]” are 25.9 nM and 88.8 nM.
On the same counts, the results for “GAUCCGACUAGUCAGGAUAUCAGGCGUAAGACAUGAGGAUCACCCAUGUCCUAAGAACAAGUAACUGAGAAGGGACAGGGCGACC [JR_SS002_Sub413]” are 62.3 nM and 62.4 nM.
On the same counts, the results for “AACAAUCUAUCUGAGGAUAUAUGUCAAAAGACAUGAGGAUCACCCAUGUAAAAACAUGAAAAGACAUAGAAGGCAGAUAGAUUGA [SS2: 1133]” are 25.4 nM and 35.1 nM.
Consider “AGAAAACAUGAGGAUCACCCAUGUAGAAAUAUGGGAGGAUAUACAAAGACGAAAGUCAAAGUAGAAGGCCUAAAGA [Mat - Same State 1 - Eli mod - 33]”, for which the “apparent KD of MS2 coat protein” value in the series with MS2 coat protein [2] is 19 nM; in the series on MS2 coat protein [3], 71.9 nM.
On the same counts, the results for “GGAAAUAACAGAGAGGAUAUCCAAAGGAAAACAUGAGGAUCACCCAUGUAAAAGGAAGGAAAUUGGGAGAAGGCUCAAAAUAAAU [salish99-ss2-015]” are 20.4 nM and 29.1 nM.
For “GGGAGGAAGAGAGAGGAUAUCCAAAGGAAAACAUGAGGAUCACCCAUGUAAAAGGUAGGAAAUUGGGAGAAGGCUCAAGAGACCG [salish99-ss2-057]” the same measures were 34.2 nM and 37.9 nM.
For “AAAAAACAAAGAGAGGAUAUCCUAAAAAAAACAUGAGGAUCACCCAUGUAAAGAAAUUUAAAAUGGGAGAAGGCUCUUUGAAAAA [Same State 2.6d ( Helter Skelter 1)]” the same measures were 12.4 nM and 23.2 nM.
